The target in one data set is T1, PduP (Salmonella enterica, UniProt Q9XDN1).
T1 construct: native PduP within anaerobically purified Pdu microcompartments (wild-type and pduQ deletion strain BE903)
Description: thioester formation at […] nm in purified Pdu MCPs. The data set is classed as biochemical. As to conditions: 10 mM propionaldehyde, 200 mM 1,2-propanediol, 40 µM NAD+, 100 µM HS-CoA, 100 mM sodium phosphate pH 7.0.

Substrate in data set [1]: NC(=O)c1ccc[n+]([C@@H]2O[C@H](COP(=O)(O)OP(=O)(O)OC[C@H]3O[C@@H](n4cnc5c(N)ncnc54)[C@H](O)[C@@H]3O)[C@@H](O)[C@H]2O)c1
The experiment in a line: purified protein. It counts as biochemical, Salmonella enterica. As to conditions: 800 mM 1-propanol, 100 mM Tris-HCl pH 9.0, anaerobic; pH 9.0.

Substrate in data set [2]: NC(=O)C1=CN([C@@H]2O[C@H](COP(=O)(O)OP(=O)(O)OC[C@H]3O[C@@H](n4cnc5c(N)ncnc54)[C@H](O)[C@@H]3O)[C@@H](O)[C@H]2O)C=CC1
Description: purified protein. The data set is classed as biochemical, Salmonella enterica. Particulars: 150 mM propionaldehyde, 100 mM sodium phosphate pH 7.0, anaerobic; pH 7.0.

Substrate in data set [3]: CCC=O
The experiment in a line: purified protein. The data set is classed as biochemical, Salmonella enterica. As to conditions: 0.4 mM NADH, 100 mM sodium phosphate pH 7.0, anaerobic; pH 7.0.

Substrate in data set [4]: CCCO
The experiment in a line: purified protein. The data set is classed as biochemical, Salmonella enterica. Particulars: 2 mM NAD+, 100 mM Tris-HCl pH 9.0, anaerobic; pH 9.0.

T1 sequence (Q9XDN1 whole entry): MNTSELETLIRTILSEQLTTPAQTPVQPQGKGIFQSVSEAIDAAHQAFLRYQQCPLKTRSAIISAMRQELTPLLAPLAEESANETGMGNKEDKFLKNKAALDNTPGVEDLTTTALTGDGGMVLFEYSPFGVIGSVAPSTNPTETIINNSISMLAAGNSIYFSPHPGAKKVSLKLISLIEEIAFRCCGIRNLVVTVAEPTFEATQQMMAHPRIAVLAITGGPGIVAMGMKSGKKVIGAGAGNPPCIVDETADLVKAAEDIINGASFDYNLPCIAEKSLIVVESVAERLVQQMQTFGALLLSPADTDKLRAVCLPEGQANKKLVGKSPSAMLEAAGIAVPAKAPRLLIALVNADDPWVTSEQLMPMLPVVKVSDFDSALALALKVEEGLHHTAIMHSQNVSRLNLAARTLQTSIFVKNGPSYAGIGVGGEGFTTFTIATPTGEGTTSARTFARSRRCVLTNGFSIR

In the case of `CCC=O` [propionaldehyde], the “thioester formation at 232 nm in purified Pdu MCPs” value at PduP is reported as “no measureable PduP activity without added HS-CoA, NAD^+ or propionaldehyde”.

As for `NC(=O)c1ccc[n+]([C@@H]2O[C@H](COP(=O)(O)OP(=O)(O)OC[C@H]3O[C@@H](n4cnc5c(N)ncnc54)[C@H](O)[C@@H]3O)[C@@H](O)[C@H]2O)c1` [NAD^+], on PduP, the “thioester formation at 232 nm in purified Pdu MCPs” value is recorded as “no measureable PduP activity without added HS-CoA, NAD^+ or propionaldehyde”.

B1: PduQ-His6 (Salmonella enterica subsp. enterica serovar Typhimurium str. LT2) (protein)
chain: MNTFSLQTRLYSGQGSLAVLKRFTNKHIWIICDGFLAHSPLLDTLRNALPADNRISVFSEITPDPTIHTVVQGIAQMQALQPQVVIGFGGGSAMDAAKAIVWFSQQSGINIETCVAIPTTSGTGSEVTSACVISDPDKGIKYPLFNNALYPDMAILDPELVVSVPPQITANTGMDVLTHALEAWVSPRASDFTDALAEKAAKLVFQYLPTAVEKGDCVATRGKMHNASTLAGMAFSQAGLGLNHAIAHQLGGQFHLPHGLANALLLTTVIRFNAGVPRAAKRYARLAKACGFCPAEANDIAAINALIQQIELLKQRCVLPSLAVALKEGRSDFSARIPAMVQAALADVTLRTNPRPANAEAIRELLEELL
notes: full length, C-terminal His6 kept, pET-41a in E. coli BL21(DE3) RIL, anaerobic Ni-NTA
As to B1, the Km in the data set “purified protein [1]” was 267.5 ± 22.3 µM; in “purified protein [2]”, 45.3 ± 5.3 µM; in the data set “purified protein [3]”, “(16.0±2.0)×10^3 µM”; in “purified protein [4]” it was “(95.8±9.2)×10^3 µM”. The maximum rate (Vmax) stood at 9.2 µmol/min/mg in “purified protein [1]”, 77.7 µmol/min/mg in “purified protein [2]”, 81.3 µmol/min/mg in “purified protein [3]” and 8.4 µmol/min/mg in the data set “purified protein [4]”. Also, the kcat in “purified protein [1]” amounted to 6.18 s⁻¹; in “purified protein [2]” it was 52.2 s⁻¹; in the data set “purified protein [3]”, 54.6 s⁻¹; in the data set “purified protein [4]”, 5.64 s⁻¹. Also, the specificity constant (kcat/Km) in “purified protein [1]” was found to be 23100 M⁻¹ s⁻¹; in the data set “purified protein [2]”, 1.15e+06 M⁻¹ s⁻¹; in the data set “purified protein [3]”, 3410 M⁻¹ s⁻¹; in the data set “purified protein [4]”, 58.9 M⁻¹ s⁻¹.

In general, Km refers to the concentration of substrate that gives half-maximal velocity. As a reminder, the Vmax is the top rate of the reaction or transport when substrate is in excess. By kcat is commonly meant the number of substrate molecules converted per active site and unit of time at saturation. For orientation: kcat/Km means the second-order rate constant that governs catalysis at low substrate concentration.

Values taken from article PMC3471927, “The PduQ Enzyme Is an Alcohol Dehydrogenase Used to Recycle NAD^+ Internally within the Pdu Microcompartment of Salmonella enterica” (PLoS ONE, 2012).
